Values of other authors, collected in patent US9173901B2, “Compositions and methods of using lamellar bodies for modifying linear biological macromolecules” (LAMELLAR THERAPEUTICS LIMITED, priority 2004, dated 2015).

System: CF patients
Conditions: young patients with mild lung disease; six months course

B1: rhDNAse: recombinant human DNAse, marketed for thinning CF secretions (protein, UniProt P24855 23-282, looked up)
Deoxyribonuclease-1: LKIAAFNIQTFGETKMSNATLVSYIVQILSRYDIALVQEVRDSHLTAVGKLLDNLNQDAPDTYHYVVSEPLGRNSYKERYLFVYRPDQVSAVDSYYYDDGCEPCGNDTFNREPAIVRFFSRFTEVREFAIVPLHAAPGDAVAEIDALYDVYLDVQEKWGLEDVMLMGDFNAGCSYVRPSQWSSIRLWTSPTFQWLIPDSADTTATPTHCAYDRIVVAGMLLRGAVVPDSALPFNFQAAYGLSDQLAQAISDHYPVEVMLK
benefit in FEVI: 3% | decrease in frequency of intravenous antibiotic courses: 34%
